Test results taken from publication PMC4442312 (eLife, 2015).
Ends that are not written are not given here. Me3 = tri-methylated lysine; Me2 = di-methylated lysine

T1: T7-ORCA (full-length) (human, UniProt Q9UFC0 1-647)
T1 construct: ORCA/LRWD1, full length; also called T7-tagged ORCA; full-length T7-ORCA; source: U2OS, transiently transfected, in lysate
T1 sequence (looked up): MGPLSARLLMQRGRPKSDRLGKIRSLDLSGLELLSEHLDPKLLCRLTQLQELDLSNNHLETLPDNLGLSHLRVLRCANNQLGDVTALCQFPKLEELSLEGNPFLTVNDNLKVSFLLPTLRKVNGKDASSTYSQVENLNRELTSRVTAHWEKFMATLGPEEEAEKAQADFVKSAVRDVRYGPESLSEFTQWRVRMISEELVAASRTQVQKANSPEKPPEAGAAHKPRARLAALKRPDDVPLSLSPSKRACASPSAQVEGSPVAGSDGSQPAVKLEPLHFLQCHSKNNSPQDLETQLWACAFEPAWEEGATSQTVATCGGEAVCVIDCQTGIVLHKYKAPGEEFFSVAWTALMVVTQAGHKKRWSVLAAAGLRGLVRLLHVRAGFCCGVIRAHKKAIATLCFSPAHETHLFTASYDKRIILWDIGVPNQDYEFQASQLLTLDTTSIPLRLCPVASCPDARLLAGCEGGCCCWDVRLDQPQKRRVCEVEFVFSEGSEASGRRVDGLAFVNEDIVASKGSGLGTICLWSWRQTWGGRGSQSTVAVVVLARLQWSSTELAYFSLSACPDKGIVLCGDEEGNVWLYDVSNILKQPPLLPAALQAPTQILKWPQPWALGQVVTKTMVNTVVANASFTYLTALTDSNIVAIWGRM

T2: His-ORCA (baculovirus) (human, UniProt Q9UFC0 1-647)
T2 construct: ORCA/LRWD1 in pFastBac HT-B; also called purified His-tagged-ORCA; baculovirally purified His-ORCA; source: Hi5 insect cells (baculovirus), nuclear extract, 45% ammonium sulfate precipitation; called 'baculovirally purified'
T2 sequence (looked up): T1 sequence (looked up)

B1: YFP-Suv39H1 (enzyme, UniProt O43463 1-412, looked up)
chain: MAENLKGCSVCCKSSWNQLQDLCRLAKLSCPALGISKRNLYDFEVEYLCDYKKIREQEYYLVKWRGYPDSESTWEPRQNLKCVRILKQFHKDLERELLRRHHRSKTPRHLDPSLANYLVQKAKQRRALRRWEQELNAKRSHLGRITVENEVDLDGPPRAFVYINEYRVGEGITLNQVAVGCECQDCLWAPTGGCCPGASLHKFAYNDQGQVRLRAGLPIYECNSRCRCGYDCPNRVVQKGIRYDLCIFRTDDGRGWGVRTLEKIRKNSFVMEYVGEIITSEEAERRGQIYDRQGATYLFDLDYVEDVYTVDAAYYGNISHFVNHSCDPNLQVYNVFIDNLDERLPRIAFFATRTIRAGEELTFDYNMQVDPVDMESTRMDSNFGLAGLPGSPKKRVRIECKCGTESCRKYLF
notes: Suv39H1; human clones in pEYFP and pSV2-YFP-mSuv39H1 are both named in the methods; source: U2OS, transiently transfected, in lysate
B2: Histone H3 (1–15) peptide, K9 di-methylated, N-terminal cysteine (peptide)
peptide: CARTKQTARK(Me2)STGGKA
notes: a cysteine at the N terminus, for coupling to the resin; human histone H3, amino acids 1-15; also called H3K9me2 peptide; source: synthetic peptide (Biomer technology), coupled to SulphoLink resin
B3: Histone H3 (1–15) peptide, K9 mono-methylated, N-terminal cysteine (peptide)
peptide: CARTKQTARK(Me)STGGKA
notes: a cysteine at the N terminus, for coupling to the resin; human histone H3, amino acids 1-15; also called H3K9me1 peptide; source: synthetic peptide (Biomer technology), coupled to SulphoLink resin
B4: YFP-ORC1 (natural protein, UniProt Q13415 1-861, looked up)
chain: MAHYPTRLKTRKTYSWVGRPLLDRKLHYQTYREMCVKTEGCSTEIHIQIGQFVLIEGDDDENPYVAKLLELFEDDSDPPPKKRARVQWFVRFCEVPACKRHLLGRKPGAQEIFWYDYPACDSNINAETIIGLVRVIPLAPKDVVPTNLKNEKTLFVKLSWNEKKFRPLSSELFAELNKPQESAAKCQKPVRAKSKSAESPSWTPAEHVAKRIESRHSASKSRQTPTHPLTPRARKRLELGNLGNPQMSQQTSCASLDSPGRIKRKVAFSEITSPSKRSQPDKLQTLSPALKAPEKTRETGLSYTEDDKKASPEHRIILRTRIAASKTIDIREERTLTPISGGQRSSVVPSVILKPENIKKRDAKEAKAQNEATSTPHRIRRKSSVLTMNRIRQQLRFLGNSKSDQEEKEILPAAEISDSSSDEEEASTPPLPRRAPRTVSRNLRSSLKSSLHTLTKVPKKSLKPRTPRCAAPQIRSRSLAAQEPASVLEEARLRLHVSAVPESLPCREQEFQDIYNFVESKLLDHTGGCMYISGVPGTGKTATVHEVIRCLQQAAQANDVPPFQYIEVNGMKLTEPHQVYVQILQKLTGQKATANHAAELLAKQFCTRGSPQETTVLLVDELDLLWTHKQDIMYNLFDWPTHKEARLVVLAIANTMDLPERIMMNRVSSRLGLTRMCFQPYTYSQLQQILRSRLKHLKAFEDDAIQLVARKVAALSGDARRCLDICRRATEICEFSQQKPDSPGLVTIAHSMEAVDEMFSSSYITAIKNSSVLEQSFLRAILAEFRRSGLEEATFQQIYSQHVALCRMEGLPYPTMSETMAVCSHLGSCRLLLVEPSRNDLLLRVRLNVSQDDVLYALKDE
notes: origin recognition complex subunit 1; source: U2OS, transiently transfected, in lysate
B5: Histone H3 (1–15) peptide, K9 tri-methylated, N-terminal cysteine (peptide)
peptide: CARTKQTARK(Me3)STGGKA
notes: a cysteine at the N terminus, for coupling to the resin; human histone H3, amino acids 1-15; also called H3K9me3 peptide; source: synthetic peptide (Biomer technology), coupled to SulphoLink resin

How the values were obtained:
[1] = target: T1, T7-ORCA (full-length); assay: single-molecule pull-down (SiMPull); biotinylated T7 antibody on NeutrAvidin/PEG quartz slides; U2OS lysates co-expressing T7-ORCA and one YFP protein; TIRF, YFP photobleaching steps; biotinylated HA antibody as control; details: partners not purified
[2] = target: T2, His-ORCA (baculovirus); assay: pull-down; H3 (1-15) peptides coupled to SulphoLink (iodoalkyl agarose) resin, incubated with baculovirally purified His-ORCA 2 hr at RT in PK 150 buffer (150 mM KCl, 0.02% NP-40); immunoblot; details: both partners purified

Binder | stoichiometry N [1] | binding result [2]
B1 | 1 Suv39H1 per ORCA | 
B2 |  | binds
B3 |  | binds
B4 | 1 Orc1 per ORCA | 
B5 |  | binds
